Data from the nanobody polyreactivity screen of Harvey et al. (2022).

Experiment: yeast display, Sf9 membrane polyspecificity reagent, FACS + sequencing; frameworks hold sequencing errors
Procedure, shortened: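 Galactose-induced (36–48 hours) yeast carrying a synthetic nanobody display library were exposed to 10% biotinylated, detergent-solubilized Sf9 membrane reagent at 4 °C for 1 hour. FACS followed streptavidin microbead enrichment, using low and high (top ~1%) gates for expression (anti-HA) and reagent binding (streptavidin). Colony PCR, MiSeq 2 × 250 sequencing and CDR-length filtering followed. Labels for polyreactivity reflect the gate of origin.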
With “QGHLVESGGGLVQAGGSLRLSCAASGRIIRWNAMGWYRQGPGKERELFAGISGSGGSTYYADSVKGRFTISRDNAKNSVYLQMNSLKPEDTAVYYCNADADSSTYVGILQRLDYWGQGTQVTVSS” the “polyreactivity (PSR sort gate)” value was “low polyreactivity”. With “QVQLVESGGGLVQAGGSLRLSCAASGITFPKYAMGWYRQAPGKERELVAAITKSGGSTYYADSVKGRFTISRDNAKNTVYLQMNSLKPEDTAVYYCAARPRYGEYDYWGQGTQVTVSS” the “polyreactivity (PSR sort gate)” value was “high polyreactivity”. In the case of “QVQLVESGGGLVQAGGSLRLSGAASGRIFYYNALGWYRPAPGKEREFVAAITWSGTSTNYADSLKGRFTISRDNAKNTVYLQMNSLKPEDTAVYYCAAQLRNSSRTYYRSGYWGQGTQVTVSS”, the “polyreactivity (PSR sort gate)” value is reported as “high polyreactivity”. For “QVQLVESGGGLVQAGGSLRLSCAASGRTFGLYAMGWYRQAPGKVRELVAAISWGGGRTYYADSVKGRFSISRDNAKNSVYLQMNSLKPEDTAVYYCNAVYSPRDYVGGYDYWGQGTQVTVSS”, the “polyreactivity (PSR sort gate)” value was “high polyreactivity”. In the case of “QVQLVESGGGLVQAGGSLRLSCAASGRILGYNAMGWYRQAPGKERELVAAITSGGSTYYADSVKGRFTISRDNAKNTVYLQMNRLKPEDTAVYYCAKRAFSYVGGQQDRNENYYYWGQGTQVTVSS”, the “polyreactivity (PSR sort gate)” value is reported as “high polyreactivity”. With “QVQLVESGGGLVQAGGSLRLSCDASGSIFGPYARGWYRQEPGKERELVAAITWTGGRTYYADSVKGRFTISRDNAKNTVYLQMNSLQPEDTAVYYFAADYSPSTWDLYYTLYYYWGQGTQVTVSS” the “polyreactivity (PSR sort gate)” value was “low polyreactivity”. For “QVQLVESGGGLVQAGGSLRLSCAASGSNFRNNAMGWYRQAPGKERELVASISSSGDSTYADSVKGRFTISRDNAMITVYLQMNSLKPEDTAVYYCARDYLSPYAVDYWGQGTQVTVSS”, the “polyreactivity (PSR sort gate)” value was “low polyreactivity”. For “QVQLVESGGGLVQAGGSLRLSCAASGSTFYYNSMGWYRQAPGKERELVARISRSGGSTYADSVKGRFTISRDNAKNTVYLQMNSLKPEDTAVYYCAKDYAPSATKLHYWGQGTQVTVSS”, the “polyreactivity (PSR sort gate)” value was “low polyreactivity”. For “QVQLVESGGGLVQAGGSLRLSCAASGSTFSYYGMGWYRPAPGKERELVAAIDYSGDSTYYADSVKARFTISRDNAKNTVYLQMNSLKPEDTAVYYCAADDYPWNRYEYWGQGTQVTVSS”, the “polyreactivity (PSR sort gate)” value was “low polyreactivity”. With “QVQRVESGGGLVQAGGSLRLSCPASGSTKFNAMGWNRQPPGKERELVATITANGDSTYYADSVKGRFTISRDNAKNTVYLQMNSLKPEDTAVYYCNADAYIRMDSWGQGTQVTVSS” the “polyreactivity (PSR sort gate)” value was “low polyreactivity”. With “QVQLVESGGGLVQAGGSLRLSCAASGSTFPYYAMGWYRQAPGKERELVAAITSSGGSTYYADSVKGRFTISRDNAKNTVYLQMNSLKPEDTAVYYCAKGYGPYRQMNYWGQGTQVTVSS” the “polyreactivity (PSR sort gate)” value was “low polyreactivity”. With “QVQLVESVVGLVQAGLSLRLSSAASGSIFSGYMGWYRHAPGKERELVATITSGGSTYADSVKGRFTISRDNAKNTVYLQMNSLKPEDTAVYYCAADVSFYTSKYDYWGLGTQVTVSS” the “polyreactivity (PSR sort gate)” value was “low polyreactivity”. In the case of “QVQLVESGGGLVQAGGSLRLSCAASGLIFRYYAMGWYSQAPGKEREFVAAISGPGASTYYADSVKGRFTISRDNAKNTVYLQMNSLKPEDTAVYYCNTLLTYGYDYWGQGTQVTVSS”, the “polyreactivity (PSR sort gate)” value is reported as “high polyreactivity”. With “QVQLVESGGGLVQTGGSLRLSCAASGSTFYYYAMGWYRQAPGKERELVAGISWGGGSTYYADSVKGRFTISRDNAKNTVYLQMNSLKPEDTAVYYCNALNPNSYDYWGQGTLVTVSS” the “polyreactivity (PSR sort gate)” value was “low polyreactivity”. With “QVQLVESGGGLVQAGGSLRLSCAASGSIFADNAMGWYRQAPGKERELVAAITWSGGSTYYADSVKGRFTISRDNAKNTVYLQMNSLKPEDTAVYYCNADDAVEYSYGGGTEFYYWGQGTQVTVSS” the “polyreactivity (PSR sort gate)” value was “low polyreactivity”. In the case of “QVQLVESAGGLVQAGGSHRLSCAASVLIFRYYAMGWFRQAPGKEWELFAAISNSGGGTYYADSVKGRFTISRDNAKNTVYLLMNSLIPVDTAVYYCAARHAFCFRFVSWGLGTQVTVSS”, the “polyreactivity (PSR sort gate)” value is reported as “high polyreactivity”. For “QVQLVESGGGLVQAGGSLSLSCAASGSILVPYTMGWYRQAPGKERELVASISYSGGSTYADSVKGRFTISRDNAKNTVYLQMNSLKPEDTAVYYCAASLPPWYPGDDFYYWGQGTQVTVSS”, the “polyreactivity (PSR sort gate)” value was “low polyreactivity”. With “QVQLVESGGGLVQAGGSLRLSCAASGSIFEGNGMGWNRQEPGNVRELVAAITFRSGSTYYADSVKGRFTISRDNAKNSVYLQMNSLKPEDTAVYYCAADEYYQVSAYDYWGQGTQVTVSS” the “polyreactivity (PSR sort gate)” value was “low polyreactivity”. With “QVQLVESVGGLVQAGGSLRLSCAASGRTFSKYAMGWYRQEPGQERELVAAITSRGSSTYYADSVKGRFTISRDNANNTVYLQMNSLKPEETAVYYCNAGGYSKRTGRYRSGSDYWGQGTHVTVSS” the “polyreactivity (PSR sort gate)” value was “high polyreactivity”. In the case of “QVQLVESGGGLVQAGGSLRLSCAASGFTFVFYAMGWYRQAPGKERELVAAINSGGSTYYADSVKGRFTISRDIAKNTDYLQMNSLKPEDTAVYYCAKGSYGPSAGYGRRYYYWGQGTQVTVSS”, the “polyreactivity (PSR sort gate)” value is reported as “high polyreactivity”. In the case of “QVQLVESGGGLVQAGGSLRISCAASGSTFWTYAMGWYRQAPGKERELVAAITTGGNTYYADSVKGRFTISRDNAKNTVYLQMNSLKPEDTAVYSCAAASWTYYYSQYGAVFREYDYWGQGTEVTVSS”, the “polyreactivity (PSR sort gate)” value is reported as “low polyreactivity”. In the case of “QVQLQESGGGLVQAGGSQRLSCAASGYIFYFQYMGWYRQAPGKEREFVAAISDGANTNYADSVKGRFTISRDNAKNTEYLQMNSLKPEDTAVYFCAVYADENYYFIYWGQGTQVTVSS”, the “polyreactivity (PSR sort gate)” value is reported as “low polyreactivity”. For “QVQLVESGGGLVQAGGSLRLSCAASGSTFSPYAMGWYRQAPGKERELVAAISYDGGSTYYADSVKGRFTISRDNAKNTVYLQMNSLKPDDTAGYYCAADYFRSYEGTYWVVASYYYWGQGTQVTVSS”, the “polyreactivity (PSR sort gate)” value was “low polyreactivity”. For “QVQLVESGGGLVQAGGSLRLSCAASGNTFGIYAMGWYRQAPGKERELVAAISSGTSTNYADSVKGRFTISRDNAKNTVYLQMNSLKPEDTAVYYCNADDQYQDVREDFWGQGTQVTVSS”, the “polyreactivity (PSR sort gate)” value was “low polyreactivity”. In the case of “QVQLVESGGGLVQAGGSLRLSCAASGFTFFWYTMGWYRQAPGKERELVAAISDTGGSTYYADSVKGRFTISRDNAKNTVYLQMNSLKPEDTAVYYCAAQYVRYGHYYWGQGTQVTVSS”, the “polyreactivity (PSR sort gate)” value is reported as “high polyreactivity”. For “QVQLVESGGGLVQAGGSLRLSCAASGRIFGIYAMGWYRQAPGKERELVAAINSGDSTYADSVKGRFTISRDNAKNTVYLQMNSLKPEDTAVYYCAAEESTSSWSINDYWGQGTQVTVSS”, the “polyreactivity (PSR sort gate)” value was “low polyreactivity”. In the case of “QVQLVESGGGLVQAGGSLRLSCAASGRIFSLYAMGWYRPAPGKERELVAAITWRGGGTYYADSVKGRITISRDNAKNTVFLQMNSLKPEDTAVYYCAAEVKHIFYGYWGQGTQVTVSS”, the “polyreactivity (PSR sort gate)” value is reported as “high polyreactivity”. In the case of “QVQLVESGGGLVQAGGSLRLSCAASGRIYSVYTMGWYRQAPGKERELVATISSGGRTNYADSVKGRFTISRDNAKNTVYLQMNSLKPEDTAVYYCAADWVYPPGLKDSVHFGEYDYWGQGTQVTVSS”, the “polyreactivity (PSR sort gate)” value is reported as “low polyreactivity”. For “QVQLVQTGRGLVQAGGSLRLICAASANIFYTNAMGWYRQAPGKERELVAAISGSGGRTYYADSVKGRFTISRDNAKNTVYLQMNSLKPEDTAVYYFNAVRRDYYDRTYGYWGQGTQVTVSS”, the “polyreactivity (PSR sort gate)” value was “low polyreactivity”. In the case of “QVQLVESGGGLVQAGGSLRLSCAASGFTFSRNAMGWYRQAPGKERELDAAITSSGGSTYYADSVKGRFTISRDNAKNTVYLQMNSLKPEDTAVYYCNVVPIWRKYLSQIYGYWGQGTQVTVSS”, the “polyreactivity (PSR sort gate)” value is reported as “high polyreactivity”. For “QVQLVESGGGLVQAGGSLRLICAASGSTFAFYAMGWYRQAPGKERELVAAISRSGGRTYYADSVKGRFTISRDNAKNTVYLQMNSLKPEDTAVYYCAAPSRITTGPHREYDYWGQGTQVTVSS”, the “polyreactivity (PSR sort gate)” value was “high polyreactivity”. In the case of “QVQLVESGGGLVQAGGSLRLSCAASGRIFYRYAMGWYRQAPGKERELVAAIRYSGGRTYYADSVKGRFTISRDNAKNTVYLQMNSLKPEDTAVYDCAADGHWYYAPFGGGDYENDYWGQGTQVTVSS”, the “polyreactivity (PSR sort gate)” value is reported as “low polyreactivity”. With “QVQLVESGAGLVQAGGSLRLTCAASARILGAYAMGWYRQAPGKERELVASISSGGRTYYADSVKGRFTISRDNAKNTVYLQMNSLKPEDTAVYYCNRDRNSGFYRRYGYWGQGSQVTVSS” the “polyreactivity (PSR sort gate)” value was “high polyreactivity”. For “QVQLVESGGGLVQAGGSLRLSCAASGITFYVNAMGWYRQAPGKERELVAAITQSVDITSYADSVKGRFTISRDNAKNTVYLQMNSLKPEDTAVYYCATRGIPDDNARDYWGQGTQVTVSS”, the “polyreactivity (PSR sort gate)” value was “low polyreactivity”. For “QVQLVESGGGLVQAGGSLRLSCAASGRTLLKNAMGWYRQAPGKEREFVAAITYSSGSTYYADSVKGRFTISRDNAKNTVYLQMNSLKPEDTAVYYCAKTNFSQSSRYNYDYWGQGTQVTVSS”, the “polyreactivity (PSR sort gate)” value was “low polyreactivity”. In the case of “QVHLVESGGGLVQAGGSLRLSCAASGNIFYVYVMGWYRQAPGKERELVAYITSGASTYYSDSVKGRFTISRDNAKNTVYFQMNSLKPEDTAVYYCAAEALGGAGAYSTLYIYDYWGEGTQVTVSS”, the “polyreactivity (PSR sort gate)” value is reported as “low polyreactivity”. With “QVQLVESGGGLVQAGGSLRLSCAASGRILAPYAMGWYRQAPGKERELVAAINWSTGRTYYADSVKGRFTISRDNAKNTVYLQMNSLKPEDTAVYYCAALIVFDTLYDYGYWGQGPQVTVSS” the “polyreactivity (PSR sort gate)” value was “low polyreactivity”. For “QVQLVESGGGLVQAGGSLRLSCAASGRIFPLYAMGWYRQAPGKERELVAAITSSGGSTYYADSVKGRFTISRDNAKNTVYLQMNSLKPEDTAVYYCADEGYYSNYHYWGQGTQVTVSS”, the “polyreactivity (PSR sort gate)” value was “low polyreactivity”. For “QVQLVESGGGLVQAGGSLRLSCAASGSTFYSYAMGWYRQAPGKERELVAAISWRGGTTYYADSVKGRFTISRDNAKNTVYLQMNSLKPEDTAVYYCNARFYRWRSYGYDYWGQGTQVTVSS”, the “polyreactivity (PSR sort gate)” value was “high polyreactivity”. With “QVQLVESGGGLVQAGGSLRLSCAASGSIFLPYAMGWYRQAPGKERELVATIRGRGGSTYYADSVKGRFTISRDNAKITVYLLMNSPKPEDTAVYYCAAKNGDRYARGYWGQGTQVTVSS” the “polyreactivity (PSR sort gate)” value was “high polyreactivity”. In the case of “QVQLVESGGGLVQAGGSLRLSCAASGRTFFRYAMGWYRQAPGKERELVAAISSRGGSTYYADSVKGRFTISRDNAKNTVYLQMNSLKPEDTAVYYCNAAAFINFILYDYWGQGTQVTVSS”, the “polyreactivity (PSR sort gate)” value is reported as “high polyreactivity”. In the case of “QVQLVESGGGLVQAGGSLRLSCAASGIIFPYYTMGWYRQAPGKERELVARITNGGRTYYADSVNGRFTISRDNAKNTVYLQMNSLKPEDTAVYYCNAGRYYIGGYWGQGTQVTVSS”, the “polyreactivity (PSR sort gate)” value is reported as “high polyreactivity”. For “QVQLVESGGGLVQAGGSLRLSCAASGRIFDLYAMGWYRQAPGKEREFVAAISGRGGSTYYADSVKGRFTISRDNAKNTVYLQMNSLKPEDTAVYYCNAKRSLYGRYGYWGQGSQVTVSS”, the “polyreactivity (PSR sort gate)” value was “high polyreactivity”.
